Source: the supplement of paper PMC10567573

B1: PRIM1 (parent)
chain: CCSSADICPKCWTLMTMAIRIIDR
B2: FAM46D (parent)
chain: LELKFVSSLRRQFEFSVDSFQIVL

Variants of: B1
Test: protein stability index of a GFP-peptide fusion (GPS, HEK-293T) (PSI 1-6); higher = more stable
Conditions: c terminus: a fixed tail appended
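Also: lentivirally expressed fusions sorted by FACS into six bins by GFP to DsRed ratio, PSI derived from sequencing read proportions per bin multiplied by bin number.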

Protein stability index: each site, then its substitutions
S3: F 1.51 | E 2.04
P9: L 1.77 | Q 1.67 | C 2.43 | T 1.47 | S 1.96
C1: N 1.49 | V 2.87
M15: S 1.95 | K 2.45 | P 2.13 | N 2.29
T13: S 1.96 | P 1.3 | Y 2.19
I21: D 2.68 | V 1.67
K10: H 2
R24: Q 1.52 | D 2.09
M17: Y 2.15 | C 1.15
I7: K 2.65 | Y 1.57 | N 1.69
D6: T 2.29 | G 1.47 | P 2.13 | N 1.86
S4: I 1.79 | E 2.11 | T 1.63 | D 1.48 | Q 2.66 | F 2.39
C8: R 3.94
A18: C 2.45 | H 2.1
C11: K 1.82 | A 4.39 | E 3.11
D23: W 2.15 | A 2.29 | Y 1.61 | T 1.82 | Q 2.09 | K 1.41
I22: Q 2.81 | S 1.6 | M 1.8
C2: R 1.91 | W 1.78 | V 2.06 | H 1.69 | Q 1.9
A5: N 1.54 | M 1.79 | T 2.98
L14: D 1.95 | Y 1.71 | N 1.82
R20: G 2.23 | T 1.67
I19: N 2.89 | Y 2.05 | H 2.8

Variants of: B2
Test: as above
Conditions: c terminus: a fixed tail appended

Protein stability index: each site, then its substitutions
F5: A 3.94 | N 2.37 | C 3.27 | G 2.6 | D 2.09 | I 3.77 | P 3.01 | T 2.8 | R 2.39 | Y 3.22 | E 1.4 | Q 2.59 | S 3.1 | K 1.64 | V 3.54 | M 4.22 | L 1.96
F13: Y 1.76 | W 3.64 | C 4.36 | I 3.87 | V 3.73 | D 2.54 | K 2.91 | E 2.55 | H 2.73 | R 3.23 | N 2.82 | T 3.34 | S 2.67 | L 3.36 | Q 2.84
S16: P 3.75 | D 3.15 | R 3.43 | A 3.32 | I 2.93 | N 3.05 | C 3.91 | M 3.57 | H 2.69 | E 2.89 | K 3.51 | F 2.79
R11: H 2.97 | W 4.32 | M 2.27 | K 3.21 | L 2.62 | D 1.97 | T 3.4 | F 3.08 | G 3.69 | C 3.03 | S 2.99 | N 3.06 | Y 3.14 | A 4.7 | I 2.54 | E 3.47 | Q 3.05
E2: Q 2.48 | C 2.74 | Y 3.04 | K 3.23 | S 3 | A 2.56 | H 2.95 | F 2.6 | N 2.6 | R 3.42 | T 2.78 | V 3.32 | W 2.81 | D 2.46 | M 2.57 | G 2.65 | L 1.7 | I 1.99
V6: R 3.15 | Q 1.56 | I 2.95 | D 2.73 | L 2.81 | Y 3.16 | E 2.75 | T 3.31 | W 4 | P 2.08 | M 2.61 | K 3.51 | H 2.9 | F 2.38 | C 2.22 | N 4.62 | S 2.49 | A 2.77 | G 2.81
E14: R 2.17 | A 3.98 | G 3.4 | I 3.52 | C 3.17 | N 2.89 | L 2.84 | W 2.46 | M 2.77 | T 4.77 | V 2.06 | P 3.67 | D 4 | Q 2.24 | Y 3.27 | K 3.16 | S 2.66
L3: H 1.82 | G 2.11 | P 1.62 | D 3.2 | Y 2.2 | F 2.43 | C 2.84 | E 1.66 | V 3 | Q 2.38 | W 2.77 | R 2.23 | A 3.39 | I 2.5 | N 2.3 | T 3.15 | K 3.37 | S 3.84
L9: N 2.64 | P 3.04 | T 2.99 | W 3.47 | K 2.41 | E 1.82 | Q 3.29 | D 3.93 | A 2.93 | C 3.2 | S 3.64 | H 2.9 | F 2.95 | V 4.14 | I 2.75 | R 3.73 | Y 2.01
R10: I 3.38 | H 2.93 | Y 2.17 | C 2.67 | T 2.83 | V 2.04 | S 3.46 | P 3.23 | N 2.23 | A 3 | W 2.01 | F 2.79 | M 2.72 | L 3.46
Q12: H 2.46 | R 2.39 | F 2.68 | P 2.65 | D 2.52 | V 3.44 | W 3.97 | A 4.78 | C 1.78 | E 2.55 | M 3.09 | S 3.06 | N 2.49 | K 3.09 | G 2.76 | T 2.42 | Y 2.8
L1: H 2.49 | R 2.33 | V 2.79 | P 2.78 | G 2.02 | T 2.9 | N 2.9 | W 1.92 | K 2.36 | F 3.04 | Q 2.32 | E 2.65 | Y 2.56 | A 2.03 | S 2.57 | D 1.9 | M 4.32 | I 2.7
S7: M 3.02 | I 2.85 | P 2.67 | A 3.21 | Q 2.43 | E 4.25 | N 1.88 | C 3.17 | R 2.91 | G 2.76 | F 4.35 | Y 3.11 | D 3.25 | K 2.57 | W 2.37 | T 1.5 | H 3.18
F15: C 2.42 | P 2.92 | H 5.32 | N 4.46 | V 4.5 | D 2.09 | E 3.22 | R 2.68 | Q 3.16 | S 3.33 | W 3.57 | M 2.58 | K 2.13 | T 2.43 | G 3.1 | I 4.07 | L 3.69
S8: Q 2.95 | Y 2.44 | V 1.71 | A 2.57 | F 1.95 | L 3.46 | D 2.97 | M 3.34 | P 2.69 | K 2.05 | W 2.98 | N 2.92 | T 3 | C 2.96 | G 2.81 | H 3.22 | R 2.15
K4: E 2.38 | L 3.25 | S 3.75 | D 3.48 | F 3.11 | I 2.9 | Q 3.84 | N 2.95 | A 2.28 | H 3.46 | R 3.25 | Y 2.06 | V 4.21 | M 4.16 | G 2.9 | C 3.62 | P 3.77
